The target in this assay is HIV-1 CRF07_BC gp120 recombinant protein (HIV-1 CRF07_BC). Put plainly: SPR; format not shown (protocol in the supplement).

In the case of “recombinant human galectin-3 (from UniProt P17931 1-250)”, the equilibrium dissociation constant (Kd) was 7 nM.

(Values after publication PMC7350312.)
